Experimental data taken from patent publication US8834890B2, “Siderophore conjugate immunogenic compositions and vaccines” (University of Florida Research Foundation, Inc., priority 2009, dated 2014).

What was measured:
[1] = Iron clearance in non-iron-overloaded, bile-duct cannulated rats; format: in vivo, Sprague-Dawley rats; details: 75 μmol/kg s.c.
Experimental: To support this idea, bile duct-cannulated rats were given vibriobactin (3) subcutaneously (s.c.) at a dose of 75 μmol/kg. The rodents' bile and urine were collected for 48 h to determine if vibriobactin sequestered and promoted the excretion of iron. The iron content of the bile and urine were determined using atomic absorption spectroscopy. This model has been used for many years to evaluate the efficiency with which iron chelators promote the excretion of iron from animals [Bergeron, R. J.; Streiff, R. R.; Creary, E. A.; Daniels, R. D., Jr.; King, W.; Luchetta, G.; Wiegand, J.; Moerker, T.; Peter, H. H. A Comparative Study of the Iron-Clearing Properties of Desferrithiocin Analogues with Desferrioxamine B in a Cebus Monkey Model. Blood 1993, 81, 2166-2173 and Bergeron, R. J.; Streiff, R. R.; Wiegand, J.; Vinson, J. R. T.; Luchetta, G.; Evans, K. M.; Peter, H.; Jenny, H.-B. A Comparative Evaluation of Iron Clearance Models. […]
Four rats were subjected to bile duct-cannulation as previously described. […] The iron content of the bile and urine were assessed by atomic absorption spectroscopy. Iron clearing efficiency was calculated as set forth elsewhere [Bergeron, R. J.; Wiegand, J.; McManis, J. S.; McCosar, B. H.; Weimar, W. R.; Brittenham, G. M.; Smith, R. E. Effects of C-4 Stereochemistry and C-4′ Hydroxylation on the Iron Clearing Efficiency and Toxicity of Desferrithiocin Analogues. […]

BSA-VIB antigen [2] = assay: Competitive binding ELISA of polyclonal serum from immunized mice
Experimental: In the competitive binding ELISA, sera from immunized mice or non-immunized mice were first incubated with potential antigens f-g, or with OVA-VIB, at antigen concentrations ranging from 0-250 μg/mL. If an antigen is an effective competitor, it will bind to the antibody during this initial incubation, leaving less antibody available to bind to a second antigen coated on the ELISA plate. This “competition” will be reflected in lower p-nitrophenol optical density values.
Competitive binding ELISAs were performed on 1) serum from immunized mice that contained polyclonal antibodies, and 2) purified mAb derived from the cloning of 5A6-2D5 and 2F10-1A9. Medium was used as a negative control, while unconjugated OVA (10 μg/mL, 50 μL/well) served as a […] for the competitive binding ELISA of the polyclonal serum (Table 2) and purified mAb (Table 6). Two types of plates were utilized: a conical bottom polypropylene plate was used for the incubation of the antibody-antigen mixture, whereas a 96-well MAXISORP plate (a high protein-binding capacity polystyrene multi-well ELISA plate) was used for the ELISA.
In brief, the polypropylene incubation plate was blocked with 300 μL of blocking buffer (1% BSA in PBS with 0.02% azide) and was allowed to incubate overnight at 4° C. The following day, the blocking buffer was removed (flicked) from the plate, and the plate was blotted on a paper towel. A 96-well ELISA plate was coated with the BSA-VIB antigen (10 μg/mL, 50 μL/well) that had been diluted in PBS with 0.02% azide. After incubating overnight at 4° C., the plate was washed 4 times (300 μL/wash) as described above, blocked with 300 μL of blocking buffer for 1 h, and washed again.
The OVA-VIB antigen was diluted in blocking buffer in micro centrifuge tubes at antigen concentrations ranging from 0-250 μg/mL. The diluted antigens (50 μL/well) were transferred from the micro centrifuge tubes to the polypropylene incubation plate that had been blocked and washed. Fifty microliters of the diluted polyclonal mouse serum (1:10,000 dilution) or mAb (0.11 μg protein/mL) were added to the incubation plate wells containing the diluted OVA-VIB antigen. The polypropylene plate was then incubated on a rocking platform for 2 h at room temperature, allowing time for the antigen-antibody complexes to form.
A portion of the antigen/antibody mixture (50 μL) was transferred from the polypropylene incubation plate to the BSA-VIB-coated ELISA plate that had been blocked and washed. The ELISA plate was incubated with gentle agitation for 1 h at room temperature and was washed 4 times with the EWB. […] The ELISA plate was allowed to incubate with gentle agitation for 1 h at room temperature and was read at 405 nm, tracking the OD of the yellow water-soluble product, p-nitrophenol. […]

BSA-VIB antigen [3] = assay: Competitive binding ELISA of purified monoclonal antibodies
Experimental: Competitive binding ELISA studies using the purified mAb were conducted. The mAb were first incubated with varying concentrations of the OVA-VIB antigen, from 0-250 μg/mL, prior to being transferred to an ELISA plate that had been coated with the BSA-VIB antigen.
In brief, the polypropylene incubation plate was blocked with 300 μL of blocking buffer (1% BSA in PBS with 0.02% azide) and was allowed to incubate overnight at 4° C. The following day, the blocking buffer was removed (flicked) from the plate, and the plate was blotted on a paper towel. A 96-well ELISA plate was coated with the BSA-VIB antigen (10 μg/mL, 50 μL/well) that had been diluted in PBS with 0.02% azide. After incubating overnight at 4° C., the plate was washed 4 times (300 μL/wash) as described above, blocked with 300 μL of blocking buffer for 1 h, and washed again. […]

[4] = against the BSA-VIB antigen, 10 μg/mL

Chain of BSA-VIB antigen (P02769 25-607): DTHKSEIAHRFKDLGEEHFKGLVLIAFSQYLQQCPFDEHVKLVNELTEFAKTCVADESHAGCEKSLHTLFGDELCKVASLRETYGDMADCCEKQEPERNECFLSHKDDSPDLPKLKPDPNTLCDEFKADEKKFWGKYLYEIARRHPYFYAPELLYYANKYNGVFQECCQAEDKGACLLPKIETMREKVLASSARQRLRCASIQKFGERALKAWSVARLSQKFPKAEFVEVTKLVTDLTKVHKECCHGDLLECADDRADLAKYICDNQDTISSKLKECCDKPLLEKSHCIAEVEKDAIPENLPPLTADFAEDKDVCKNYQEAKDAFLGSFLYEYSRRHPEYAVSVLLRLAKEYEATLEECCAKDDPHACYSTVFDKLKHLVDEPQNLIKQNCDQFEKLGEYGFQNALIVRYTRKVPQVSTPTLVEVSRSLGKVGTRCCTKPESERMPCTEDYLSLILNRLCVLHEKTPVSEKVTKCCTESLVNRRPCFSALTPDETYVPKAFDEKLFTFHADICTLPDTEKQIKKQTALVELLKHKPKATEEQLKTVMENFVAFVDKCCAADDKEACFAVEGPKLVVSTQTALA

## CC1OC(c2cccc(O)c2O)=NC1C(=O)NCCCN(CCCNC(=O)c1cccc(O)c1O)C(=O)C1N=C(c2cccc(O)c2O)OC1C (centres unmarked) [Compound 3, vibriobactin]
[1]
  iron sequestration in vivo (in words): found to sequester iron in vivo
[1]; bile and urine collected 48 h
  iron clearing efficiency: 4.3±1.1%

B1: OVA: unconjugated ovalbumin, control in the competitive binding ELISA (protein, UniProt P01012 2-386, looked up)
Ovalbumin: GSIGAASMEFCFDVFKELKVHHANENIFYCPIAIMSALAMVYLGAKDSTRTQINKVVRFDKLPGFGDSIEAQCGTSVNVHSSLRDILNQITKPNDVYSFSLASRLYAEERYPILPEYLQCVKELYRGGLEPINFQTAADQARELINSWVESQTNGIIRNVLQPSSVDSQTAMVLVNAIVFKGLWEKAFKDEDTQAMPFRVTEQESKPVQMMYQIGLFRVASMASEKMKILELPFASGTMSMLVLLPDEVSGLEQLESIINFEKLTEWTSSNVMEERKIKVYLPRMKMEEKYNLTSVLMAMGITDVFSSSANLSGISSAESLKISQAVHAAHAEINEAGREVVGSAEAGVDAASVSEEFRADHPFLFCIKHIATNAVLFFGRCVSP
BSA-VIB antigen [2]; M1 serum 1:10,000 incubated with unconjugated OVA 10 μg/mL
  BSA-VIB Antigen: Optical Density at 405 nm: 1.152
BSA-VIB antigen [2]; M2 serum 1:10,000 incubated with unconjugated OVA 10 μg/mL
  BSA-VIB Antigen: Optical Density at 405 nm: 1.655
BSA-VIB antigen [2]; [4]
  optical density of serum incubated with OVA greater than serum first incubated with OVA-VIB at the same concentration: 92%
BSA-VIB antigen [2]; sera from immunized mice, antigen 0-250 μg/mL
  effectiveness as competitor (in words): not an effective competitor
BSA-VIB antigen [3]; [4]
  optical density of mAb incubated with OVA greater than mAb first incubated with OVA-VIB at the same concentration: approximately 90%
BSA-VIB antigen [3]; purified mAb, antigen 0-250 μg/mL
  effectiveness as competitor (in words): not an effective competitor
